Laboratory results from EP1169642B1 (THE GOVERNMENT OF THE UNITED STATES OF AMERICA, as …, dated 2006).

Target: T1, purified human complement Factor H (human, UniProt P08603 19-1231)
T1 construct: also called fH
Assay: steady state tryptophan fluorescence titration of Factor H with BSP

T1 sequence (P08603 19-1231 limits assumed): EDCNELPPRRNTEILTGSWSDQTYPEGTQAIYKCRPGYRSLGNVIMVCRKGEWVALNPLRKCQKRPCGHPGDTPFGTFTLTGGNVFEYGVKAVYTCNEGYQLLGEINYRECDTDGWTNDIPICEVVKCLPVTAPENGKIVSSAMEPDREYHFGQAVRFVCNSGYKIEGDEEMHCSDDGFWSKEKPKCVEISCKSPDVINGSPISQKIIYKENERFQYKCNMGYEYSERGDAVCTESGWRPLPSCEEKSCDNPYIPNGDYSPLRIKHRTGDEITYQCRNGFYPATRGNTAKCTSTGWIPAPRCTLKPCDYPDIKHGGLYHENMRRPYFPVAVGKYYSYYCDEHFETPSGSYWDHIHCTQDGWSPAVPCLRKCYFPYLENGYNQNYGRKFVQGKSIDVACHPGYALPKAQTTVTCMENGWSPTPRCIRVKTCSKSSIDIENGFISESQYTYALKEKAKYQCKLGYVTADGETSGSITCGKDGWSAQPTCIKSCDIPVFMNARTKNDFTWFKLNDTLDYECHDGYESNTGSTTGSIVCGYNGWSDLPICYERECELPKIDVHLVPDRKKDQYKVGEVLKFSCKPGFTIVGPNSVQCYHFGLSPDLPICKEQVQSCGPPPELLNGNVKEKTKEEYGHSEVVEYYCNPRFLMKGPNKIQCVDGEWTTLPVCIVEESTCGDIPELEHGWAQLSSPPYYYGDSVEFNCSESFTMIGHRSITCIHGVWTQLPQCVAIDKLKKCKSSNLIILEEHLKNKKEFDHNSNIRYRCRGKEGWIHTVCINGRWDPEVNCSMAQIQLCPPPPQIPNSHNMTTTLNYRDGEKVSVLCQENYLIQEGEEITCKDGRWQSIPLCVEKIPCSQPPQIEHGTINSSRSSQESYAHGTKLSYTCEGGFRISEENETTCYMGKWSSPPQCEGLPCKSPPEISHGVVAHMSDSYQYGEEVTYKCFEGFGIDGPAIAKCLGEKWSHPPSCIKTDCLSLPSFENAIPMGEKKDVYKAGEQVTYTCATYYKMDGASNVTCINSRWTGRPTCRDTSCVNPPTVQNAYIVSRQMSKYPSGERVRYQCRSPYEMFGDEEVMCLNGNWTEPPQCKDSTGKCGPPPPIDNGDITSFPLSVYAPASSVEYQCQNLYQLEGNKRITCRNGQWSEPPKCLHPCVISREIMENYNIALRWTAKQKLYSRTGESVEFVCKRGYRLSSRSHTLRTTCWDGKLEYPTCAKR

B1: human bone sialoprotein (BSP) (ligand)
chain: FSMKNLHRRVKIEDSEENGVFKYRPRYYLYKHAYFYPHLKRFPVQGSSDSSEENGDDSSEEEEEEEETSNEGENNEESNEDEDSEAENTTLSATTLGYGEDATPGTGYTGLAAIQLPKKAGDITNKATKEKESDEEEEEEEEGNENEESEAEVDENEQGINGTSTNSTEAENGNGSSGGDNGEEGEEESVTGANAEGTTETGGQGKGTSKTTTSPNGGFEPTTPPQVYRTTSPPFGKTTTVEYEGEYEYTGVNEYDNGYEIYESENGEPRGDNYRAYEDEYSYFKGQGYDGYDGQNYYHHQ
modifications: glycosylated, phosphorylated and tyrosine-sulfated glycoprotein (sites not given)
notes: Natural BSP of human serum is entered under the same molecule; also called rBSP; recombinant BSP
Kd: ≤ 1 nM
stoichiometry (BSP:Factor H): 1 molar ratio
